# Reference: paper PMC2820103 (Biochemistry, 2009)
# B1: Benzylsuccinate synthase α subunit (BSS-α) with a C-terminal His6 tag (natural protein, Thauera aromatica T1, UniProt O68395 1-864, looked up)
# chain: MNDIVSAKVLEYKGKKLNFTPEDPAEETIPADELHEHLQKPSTARTKRLKERCRWKHASAGEFIEKSVTAGIERMRYLTEAHKASEGKPEAIRRALGLANVLNKSTLVLQEDEFIVGYHAEDPNMFPLYPELSHMAVQDYLRSDYSPQPADEAAAINEYWKPHSLQSKCQPYFDPADLGRMYQVSSMEAPSFASGYNSIVPPYETVLEDGLLARIKLAEKHIAEAQADMSTFPWNGTKGLDNIAKIDNWKAMVIACKAVISWARRQGRLCKIVAENFETDPKRQAELLEIADICQRIPAEPCKGLKDAMQAKFFTFLICHAIERYASGYAQKEDTLLWPYYKASVVDKKFQPMSHMDAVELVEMERLKISEHGAGKSRAYREIFPGSNDLFILTVGGTNAKGEDACNDMTDAILEAAKRIRTAEPSIVFRYSKKNREKTLRWVFECIRDGLGYPSIKHDEIGTEQMKEYAKFSLNGNGATDEEAHNWVNVLCMSPGIHGRRKTQKTRSEGGGSIFPAKLLEISLNDGYDWSYADMQLGPKTGDLSSLKSFEDVWEAFRKQYQYAINLCISTKDVSRYFEQRFLQMPFVSAIDDGCMELGMDACALSEQPNGWHNPITTIVAANSLVAIKKLVFEEKKYTLEQLSQALKANWEGFEEMRVDFKRAPKWGNDDDYADGIITRFYEEIIGGEMRKITNYSGGPVMPTGQAVGLYMEVGSRTGPTPDGRFGGEAADDGGISPYMGTDKKGPTAVLRSVSKVQKNQKGNLLNQRLSVPIMRSKHGFEIWNSYMKTWHDLNIDHVQFNVVSTDEMRAAQREPEKHHDLIVRVSGYSARFVDIPTYGQNTIIARQEQDFSASDLEFLNVEI
# Molecular target: the molecule itself
# Test: SEC
protein,measurement,value
B1,stoichiometry N,2
